The values that follow come from the supplement of paper PMC7877785.

The series in a line: self-splicing fitness, log relative to wild type (ln ratio); higher = more splicing; Tetrahymena group I intron in knt gene, E. coli kanamycin selection, DiMSum; sequences stand for … in CUCUCU…GGAGGGAAAAGUUAUCAGGCAUGCACCUGGUAGCUAGUCUUUAAACCAAUAGAUUGCAUCGGUUUAAAAGGCAAGACCGUCAAAUUGCGGGAAAGGGGUCAACAGCCGUUCAGUACCAAGUCUCAGGGGAAACUUUGAGAUGGCCUUGCAAAGGGUAUGGUAAUAAGCUGACGGACAUGGUCCUAACCACGCAGCCAAGUCCUAAGUCAACAGAUCUUCUGUUGAUAUGGAUGCAGUUCACAGACUAAAUGUCGGUCGGGGAAGAUGUAUUCUUCUCAUAAGAUAUAGUCGGACCUCUCCUUAAUGGGAGCUAGCGGAUGAAGUGAUGCAACACUGGAGCCGCUGGGAACUAAUUUGUAUGCGAAAGUAUAUUGAUUAGUUUUGGAGUACUCGUGGUCG
A digest of the protocol:
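DiMSum derived fitness as the error-weighted combination of fold changes across replicates, kanamycin versus no kanamycin, normalised to wild type. E. coli BL21(DE3) held the library, which randomised all eight P1ex-region intron nucleotides within the knt kanamycin-resistance gene on pET-22b(+). Six replicate transformations grew overnight at 37°C or 30°C on LB agar with or without 25 μg/mL kanamycin, also containing 100 μg/mL carbenicillin, 50 μM IPTG and 0.2% rhamnose, and pooled colonies were amplicon-sequenced on an Illumina HiSeq 2500.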

± gives the uncertainty stated by the source.

With CGGAAGCAAUAUUACGGGCU, the “self-splicing fitness (ln)” value was -3.27 ± 0.18 (30 °C) and -3.3 ± 0.25 (37 °C).
For the sequence UGUGAGCAAUAUUACGUGGG, the “self-splicing fitness (ln)” value was -3.67 ± 0.25 (30 °C) and -2.34 ± 0.15 (37 °C).
With UUCUAGCAAUAUUACGAUCG, for the setting “37 °C”, the “self-splicing fitness (ln)” value was -2.02 ± 0.28.
As to GAUGAGCAAUAUUACGGCUC, the “self-splicing fitness (ln)” value (30 °C) is -0.914 ± 0.26 and the “self-splicing fitness (ln)” value (37 °C) is -1.12 ± 0.32.
As for CCUUAGCAAUAUUACGUACC, under “30 °C”, the “self-splicing fitness (ln)” value was -3.04 ± 0.45.
On to ACCGAGCAAUAUUACGGCGA, for which the “self-splicing fitness (ln)” value (30 °C) is -0.182 ± 0.086 and the “self-splicing fitness (ln)” value (37 °C) was -0.768 ± 0.12.
Turning to CAAUAGCAAUAUUACGGGCG, the “self-splicing fitness (ln)” value by setting is: (30 °C) 0.548 ± 0.093; (37 °C) 0.28 ± 0.11.
For UAUAAGCAAUAUUACGCACA the same measures were -0.168 ± 0.085 and -0.211 ± 0.11.
As to AGAAAGCAAUAUUACGCCGG, the “self-splicing fitness (ln)” value is -1.43 ± 0.25 (30 °C) and -1.62 ± 0.24 (37 °C).
CUAAAGCAAUAUUACGUCGU: the “self-splicing fitness (ln)” value was -4.09 ± 0.2 (30 °C) and -2.88 ± 0.22 (37 °C).
As to CGAAAGCAAUAUUACGUGCA, the “self-splicing fitness (ln)” value was -2.12 ± 0.12 (30 °C) and -1.13 ± 0.12 (37 °C).
Regarding GCCCAGCAAUAUUACGACUU, the “self-splicing fitness (ln)” value by setting is: (30 °C) -1.45 ± 0.095; (37 °C) -0.824 ± 0.1.
In the case of ACUUAGCAAUAUUACGAAAA, the “self-splicing fitness (ln)” value reads like this: (30 °C) -2.79 ± 0.26; (37 °C) -2.01 ± 0.27.
Turning to AGAUAGCAAUAUUACGCAGA, the “self-splicing fitness (ln)” value (30 °C) is -2.95 ± 0.18 and the “self-splicing fitness (ln)” value (37 °C) is -2.32 ± 0.2.
As to CCUGAGCAAUAUUACGAGUU, the “self-splicing fitness (ln)” value (30 °C) was -3.99 ± 0.39.
In the case of CCGGAGCAAUAUUACGAGGA, under “37 °C”, the “self-splicing fitness (ln)” value was -1.96 ± 0.24.
With AGUAAGCAAUAUUACGCUGA, the “self-splicing fitness (ln)” value is -1.98 ± 0.33 (30 °C) and -2.29 ± 0.31 (37 °C).
In the case of AAGGAGCAAUAUUACGCCGC, the “self-splicing fitness (ln)” value (37 °C) is -2.04 ± 0.5.
ACUCAGCAAUAUUACGCAAG: the “self-splicing fitness (ln)” value (30 °C) is -1.89 ± 0.11 and the “self-splicing fitness (ln)” value (37 °C) is -0.159 ± 0.087.
For UAUCAGCAAUAUUACGCCAC, where the note is “30 °C”, the “self-splicing fitness (ln)” value is -3.63 ± 0.48.
Consider UUAAAGCAAUAUUACGUGAU, for which the “self-splicing fitness (ln)” value by setting is: (30 °C) -3.01 ± 0.15; (37 °C) -1.15 ± 0.14.
Regarding CCAGAGCAAUAUUACGCUUU, the “self-splicing fitness (ln)” value by setting is: (30 °C) -3.36 ± 0.27; (37 °C) -1.71 ± 0.17.
Regarding AACGAGCAAUAUUACGCAGC, the “self-splicing fitness (ln)” value (30 °C) was -2.29 ± 0.29.
For UGUGAGCAAUAUUACGCCUA, under “30 °C”, the “self-splicing fitness (ln)” value was -0.115 ± 0.23.
Take AGGUAGCAAUAUUACGGAAU: the “self-splicing fitness (ln)” value by setting is: (30 °C) -2.678 ± 0.019; (37 °C) -1.29 ± 0.035.
For GGUCAGCAAUAUUACGUAAG, in that order: -1.87 ± 0.15 and -0.22 ± 0.18.
As for UCCGAGCAAUAUUACGCGUA, the “self-splicing fitness (ln)” value was -1.14 ± 0.098 (30 °C) and -0.936 ± 0.11 (37 °C).
As to UUGCAGCAAUAUUACGCUCA, the “self-splicing fitness (ln)” value was -0.833 ± 0.18 (30 °C) and -0.278 ± 0.17 (37 °C).
AUCCAGCAAUAUUACGUACU: the “self-splicing fitness (ln)” value (30 °C) is -1.56 ± 0.14 and the “self-splicing fitness (ln)” value (37 °C) was -0.416 ± 0.15.
For the sequence UGGUAGCAAUAUUACGGGGG, the “self-splicing fitness (ln)” value (30 °C) is -3.73 ± 0.32 and the “self-splicing fitness (ln)” value (37 °C) is -2.45 ± 0.33.
Consider UCGUAGCAAUAUUACGCGCU, for which the “self-splicing fitness (ln)” value is -2.31 ± 0.19 (30 °C) and -1.78 ± 0.22 (37 °C).
Take ACUGAGCAAUAUUACGAACA: the “self-splicing fitness (ln)” value was -3.84 ± 0.47 (30 °C) and -2.59 ± 0.48 (37 °C).
CGCCAGCAAUAUUACGUAAG: the “self-splicing fitness (ln)” value reads like this: (30 °C) -0.207 ± 0.063; (37 °C) 0.217 ± 0.074.
As to GAUGAGCAAUAUUACGGGUU, the “self-splicing fitness (ln)” value (30 °C) was -2.39 ± 0.17 and the “self-splicing fitness (ln)” value (37 °C) is -2.6 ± 0.27.
For ACUAAGCAAUAUUACGCACG the same measures were -1.68 ± 0.1 and -0.457 ± 0.13.
For the sequence AGCGAGCAAUAUUACGUGUG, the “self-splicing fitness (ln)” value (30 °C) is -3.86 ± 0.22 and the “self-splicing fitness (ln)” value (37 °C) was -2.88 ± 0.17.
